Measured values reported in US20170224833A1, “SELF-ASSEMBLING MOLECULES THAT ACCUMULATE IN ACIDIC TUMOR MICROENVIRONMENTS” (OHIO STATE INNOVATION FOUNDATION, priority 2014, published 2017).
Blank lines part the entries; values can stand above or below the compound they belong to. Residues, ends and D or L forms follow the SMILES beside them. *: point of attachment. Palmitoyl = CCCCCCCCCCCCCCCC(=O)*

Tests used:
[1] = Circular dichroism (CD) spectroscopy of pH-triggered self-assembly transition in 150 mM NaCl, 2.2 mM CaCl2; format: physicochemical; conditions: for CD Transition pH: random coil to β-sheet; for secondary structure by CD: irrespective of concentration and pH (pH 5-10)
Method: The target PA concentration (10 μM) was below the detectable limit of conventional techniques to determine the morphology such as cryoTEM and small-angle X-ray scattering. Consequently, circular dichroism (CD) spectroscopy was initially used to characterize the morphology of these PAs at various pH values. PA1 was the first molecule synthesized that underwent a self-assembly transition in the desired pH range of 6.6-7.4 at 10 μM PA concentration, in 150 mM NaCl and 2.2 mM CaCl2 (FIG. 2A) (Goldberger, J. E., et al. Angew. Chem. Int. Ed. 2011 50:6292-95). […] The transition pH from random coil to β-sheet occurred at a pH of 6.6. The transition pH was defined as the value at which the ellipticity at 205 nm rises to zero, followed by the appearance of a minimum at 218-220 nm.
Measurements were done on a Jasco-815 Circular Dichroism spectrometer using 1 cm path length quartz cuvettes. 10 μM solutions of peptide amphiphiles were prepared in 150 mM NaCl and 2.2 mM CaCl2 by dilution from a concentrated PA stock (0.5-1 mM, pH 9). Double de-ionized Milli-Q water was used for preparing all solutions. The solutions were then heated at 80° C. for 30 minutes in a water bath and gradually cooled to room temperature. An Accumet XL15 pH meter (Fisher Scientific) coupled with an Orion Ross Ultra semi-micro electrode (8103BNUWP, Thermo Scientific) was used to adjust the pH of the solution to the desired value followed by collection of the CD spectra Each trace shown was averaged over 3 accumulations and was baseline subtracted using aqueous solutions containing salts only. All spectra are cut-off below 205 nm due to absorption by NaCl and CaCl2.
Measurements were done on a Jasco-815 Circular Dichroism spectrometer using 0.5-1 cm path length quartz cuvettes. 500-10 μM of either pure PA or PA mixtures were prepared in 150 mM NaCl and 2.2 mM CaCl2 (and 1.8 mM 20 kDa PEG in select samples) by dilution from a concentrated PA stock (0.5-1 mM, pH 9). Double de-ionized Milli-Q water was used for preparing all solutions. The solutions were then heated at 80° C. for 30 minutes in a water bath and gradually cooled to room temperature. An Accumet XL15 pH meter (Fisher Scientific) coupled with an Orion Ross Ultra semi-micro electrode (8103BNUWP, Thermo Scientific) was used to adjust the pH of the solution to the desired value followed by collection of the CD spectra. Each trace shown was averaged over 3 accumulations and was baseline subtracted using aqueous solutions containing salts only. All spectra are cut-off below 200 nm due to absorption by NaCl and CaCl2. The same procedure was followed for the salt control samples with 3.0 and 4.0 mM CaCl2.
Self-assembly behavior is known to be extremely sensitive to minor changes in monomer structure and presence of impurities. […] CAC measurements via the pyrene 1:3 method (Das, D. et al. J. Colloid Interface Sci. 2008, 327:198) were used to ascertain the single molecule to spherical micelle transitions at varying pH values (FIGS. 24A-24C). CD Spectroscopy was used to determine the pH points at which different concentrations (10-500 μM) of the PA molecules transitioned from a random coil to a β-sheet secondary structure (FIGS. 25A-25C). It has been previously shown that the random coil and β-sheet structures correspond to spherical micellar/isolated molecule and nanofiber morphologies respectively (Ghosh, A. et al. J. Am. Chem. Soc. 2012, 134:3647). The CD transition point was defined to be the pH value at which the ellipticity at 200 nm rose from a negative value (random coil) to zero accompanied by the appearance of a minimum at 218-220 nm. The addition of PA66 shifted the CD transition pH to more basic values by ˜0.6 pH units. […] This ˜0.6 pH shift in CD transition pH to more basic values were also observed when 1.5% of PA67 was added to PA65. […]

[2] = Transmission electron microscopy (TEM) of self-assembled morphology; format: physicochemical; conditions: for average diameter of isolated nanofibers: 0.5 mM; for fiber diameter: pH 8.0 (100 μM, FIG. 40)
Method: TEM images were obtained using solutions of either 10 μM or 0.5 mM peptide amphiphile concentration, as well as 150 mM NaCl and 2.2 mM CaCl2 in Milli-Q water. The solutions were first heated at 80° C. for 30 minutes in a water bath and then gradually cooled to room temperature. This was followed by pH adjustment using either HCl or NaOH. 5 μL of this solution was pipetted onto a Carbon Formvar grid (Electron Microscopy Sciences) and allowed to sit for 2 minutes before being wicked dry using filter paper. For the 10 μM experiments that were performed to determine the time dependence of nanofiber formation, solutions were dropcast onto the grid within three minutes of pH adjustment. The samples were then negatively stained using 1 wt % uranyl acetate and imaged under a FEI Tecnai G2 Bio TWIN TEM system, operating at 100 kV. All TEM experiments were performed in triplicate, using at least three different freshly prepared solutions and grids. […]
TEM images were obtained at various concentrations and pH values, with 150 mM NaCl and 2.2 mM CaCl2 in deionized water. Solutions were heated at 80° C. for 30 minutes and gradually cooled to room temperature. Following temperature equilibration, pH adjustment was achieved using HCl or NaOH. 5 μL of this solution was pipetted onto a Carbon Formvar grid (Electron Microscopy Sciences) and allowed to sit for 2 minutes before being wicked dry using filter paper strips. The samples were negatively stained with 1 wt % uranyl acetate and imaged under a FEI Tecnai G2 Bio TWIN TEM system operating at 100 kV.
Transmission electron microscopy was employed to confirm the self-assembled morphology at different pH values and concentrations. The sample to be tested was basified to a pH of 10, stirred at 90° C. in an oil bath for 30 minutes and cooled to room temperature. The pH was then adjusted with HCl and NaOH to set the peptide solution (in 150 mM NaCl and 2.2 mM CaCl2) to a pH of either 5 or 9. Once the desired pH was reached, 5 μL of the sample was placed and spread onto a Carbon Formvar grid (Electron Microscopy Sciences) and allowed to sit for one minute before being wicked dry with filter paper. A 1 wt % uranyl acetate solution was added and spread over the grid to negatively stain the sample, and was wicked dry immediately after application. The grid was then examined by a FEI Tecnai G2 Biotwin TEM at 100 keV. The diameters of each self-assembled morphology was determined via averaging at least 30 different objects.

[3] = 10 μM PA, 150 mM NaCl, 2.2 mM CaCl2

pH above which CD shows superimposable random coil morphology [1, 3]: 6.82
CD Transition pH [1, 3]: 6.6
transition between random coil and β-sheet structure (reversibility) ([1]; 10 μM, pH switched between 7.75 and 6.1, three cycles): rapid and reversible
pH transition point at 10 μm PA ([1]; basic to acidic transition from small molecule to cylindrical nanofiber, simulated serum environment): 6.6
average diameter of isolated fibers ([2]; 10 μM, pH 6): 9.1±1.5 nm
average length of isolated fibers ([2]; 10 μM, pH 6, grids within three minutes of pH adjustment): 590±200 nm
fibers observed by TEM ([2]; 10 μM, pH 8): no fibers were present
average diameter of isolated nanofibers ([2]; pH 6.0): 9.4±1.1 nm
average diameter of isolated nanofibers ([2]; pH 10.0): 9.5±1.2 nm
Compound: CCCCCCCCCCCCCCCC(=O)N[C@H](C(=O)N[C@@H](C)C(=O)N[C@@H](C)C(=O)N[C@@H](C)C(=O)N[C@@H](CCC(=O)O)C(=O)N[C@@H](CCC(=O)O)C(=O)N[C@@H](CCC(=O)O)C(=O)N[C@@H](CCC(=O)O)C(N)=O)[C@@H](C)CC [PA1] (Palmitoyl-IAAAEEEE-NH2)
time required to achieve the expected morphology after pH change ([1]; 10 μM, 150 mM NaCl, 2.2 mM CaCl2): three minutes or less

Compound: Palmitoyl-IAAAEEEEK(DO3A:Gd)-NH2 (Palmitoyl-IAAAEEEEK(DO3A)-NH2; also: DO3A chelates Gd) [PA5]
CD Transition pH [1, 3]: 5.7
nanofiber to micelle transition pH ([1]; 20 μM PA): 5.7
nanofiber to micelle transition pH ([1]; 0.5 mM PA): 6.0
pH transition point at 10 μm PA ([1]; basic to acidic transition from spherical micelle to cylindrical fiber, simulated serum environment (150 mM NaC, 2.2 mM CaCl2)): 5.7
nanofiber diameter ([2]; 0.5 mM PA, pH 4): 11.9±1.6 nm
spherical micelle diameter ([2]; 0.5 mM PA, pH 10): 10.0±1.2 nm

Compound: Palmitoyl-AAAIEEEE-NH2 (SMILES CCCCCCCCCCCCCCCC(=O)N[C@@H](C)C(=O)N[C@@H](C)C(=O)N[C@@H](C)C(=O)N[C@H](C(=O)N[C@@H](CCC(=O)O)C(=O)N[C@@H](CCC(=O)O)C(=O)N[C@@H](CCC(=O)O)C(=O)N[C@@H](CCC(=O)O)C(N)=O)[C@@H](C)CC) [PA70]
secondary structure by CD [1]: β-sheet secondary structure regardless of concentration and pH
fiber diameter [2]: ~9.0±0.8 nm

Compound: palmitoyl-YYAAEEEEEK(DO3A:Gd)-NH2 (Palmitoyl-YYAAEEEEEK(DO3A)-NH2; also: DO3A chelates Gd) [PA74]
pH below which nanofibers form (CD morphology transition) ([1]; 50 μM): 5.75
nanofiber diameter ([2]; FIG. 50: pH 5, PA74 500 μM, PA75 100 μM): 9.7+/−1.2 nm
morphology by TEM ([2]; pH 5, PA74 500 μM, PA75 100 μM): nanofiber morphology
morphology by TEM ([2]; pH 9, PA74 500 μM, PA75 100 μM): spherical micelle morphology

Compound: Palmitoyl-AIAAEEEEK(DO3A:Gd)-NH2 (Palmitoyl-AIAAEEEEK(DO3A)-NH2; also: DO3A chelates Gd) [PA71]
secondary structure by CD [1]: exclusively 3-sheet formation irrespective of concentration and pH
nanofiber length ([2]; pH 6.6, 150 μM): > 1 μm
nanofiber width ([2]; pH 6.6, 150 μM): ~11.3±1.1 nm
fiber diameter [2]: ~9.6±0.5 nm

morphology by CD ([1]; 8.4 μM and above): formed nanofibers across all pH values
nanofiber diameter ([2]; 100 μM, pH 5.0 and 8.3): 9.5±0.8 nm
Compound: CCCCCCCCCCCCCCCC(=O)N[C@@H](C)C(=O)N[C@H](C(=O)N[C@@H](C)C(=O)N[C@@H](C)C(=O)N[C@@H](CCC(=O)O)C(=O)N[C@@H](CCC(=O)O)C(=O)N[C@@H](CCC(=O)O)C(=O)N[C@@H](CCC(=O)O)C(N)=O)[C@@H](C)CC [PA68] (Palmitoyl-AIAAEEEE-NH2)
